# T1: Ly49D (mouse, UniProt Q60651 1-263)
# T1 construct: whole, on cells; Expressed in Ba/F3 transfectants; also called mouse Ly49D
# T1 sequence (looked up): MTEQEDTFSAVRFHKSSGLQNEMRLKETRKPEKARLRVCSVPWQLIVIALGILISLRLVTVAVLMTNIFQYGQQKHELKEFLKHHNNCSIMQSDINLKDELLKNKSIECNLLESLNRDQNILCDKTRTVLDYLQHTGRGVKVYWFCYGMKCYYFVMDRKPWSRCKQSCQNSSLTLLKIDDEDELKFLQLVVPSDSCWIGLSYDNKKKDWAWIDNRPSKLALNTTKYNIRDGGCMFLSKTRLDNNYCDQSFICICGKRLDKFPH
# T2: myc epitope tagged Ly49H (Ly49H-myc) (mouse, UniProt Q60682 1-266)
# T2 construct: whole, on cells; Expressed in Ba/F3 transfectants; also called mouse Ly49H
# T2 sequence (looked up): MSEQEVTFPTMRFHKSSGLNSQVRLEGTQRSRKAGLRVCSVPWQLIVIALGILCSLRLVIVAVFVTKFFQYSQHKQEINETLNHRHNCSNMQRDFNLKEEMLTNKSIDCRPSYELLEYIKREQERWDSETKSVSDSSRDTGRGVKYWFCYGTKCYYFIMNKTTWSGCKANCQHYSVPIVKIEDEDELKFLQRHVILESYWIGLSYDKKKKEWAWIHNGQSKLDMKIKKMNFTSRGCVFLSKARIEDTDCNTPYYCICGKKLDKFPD
# Columns and labels:
# Ly49D = biological target: T1, Ly49D; test: co-immunoprecipitation from transfected Ba/F3 cells
# Excerpt: (§1) Transcripts of Ly49D and Ly49H are present in IL-2 activated NK cells (20). Ly49D is expressed on ~50% of NK cells (Mason, et al. (1996) *J. Exp. Med.* 184:2119), and is associated with a tyrosine phosphoprotein of 16 kD (Mason, et al. (1998) *J. Immunol.* 160:4148-4152). Murine NK cells, like human NK cells, transcribe mRNA for DAP12, a molecule which associates with the activating KIR2DS and mediates cellular activation (Lanier, et al. (1998) *Nature* 391:703). To examine if Ly49D or Ly49H associated with DAP12, Ba/F3 cells were stably transfected with an epitope-tagged mouse DAP12 (DAP12-FLAG). […] Ba/F3 or the Ba/F3-DAP12 transfectants were then infected with retroviruses encoding either Ly49D, a myc epitope tagged Ly49H (Ly49H-myc), or as a control Ly49A. Neither Ly49D nor Ly49H-myc was expressed at appreciable levels on the cell surface when transfected into Ba/F3 cells.
# (§2) To confirm that Ly49D and Ly49H non-covalently associate with DAP12 at the cell surface, Ly49D/DAP12-FLAG or Ly49H-myc/DAP12-FLAG Ba/F3 transfectants were surface iodinated, lysed with digitonin, and immunoprecipitates were analyzed by SDS-PAGE.
# [1] = biological target: T2, myc epitope tagged Ly49H (Ly49H-myc); test: as above
# Excerpt: as §1, §2
# [2] = biological target: T3, CD94/NKG2C receptor (disulfide-linked heterodimer) (human, UniProt Q13241 1-179; P26717 1-231); test: summary of example XII
# T3 construct: whole, on cells; Expressed in Ba/F3 transfectants; also called CD94/NKG2C heterodimer
# T3 sequence (Q13241 whole entry, chain 1 of 2): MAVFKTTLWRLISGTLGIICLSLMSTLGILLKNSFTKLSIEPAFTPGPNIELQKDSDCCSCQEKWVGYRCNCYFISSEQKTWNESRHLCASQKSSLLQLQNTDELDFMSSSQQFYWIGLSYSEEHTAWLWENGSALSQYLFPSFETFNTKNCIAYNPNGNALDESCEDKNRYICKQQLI
# T3 sequence (P26717 whole entry, chain 2 of 2): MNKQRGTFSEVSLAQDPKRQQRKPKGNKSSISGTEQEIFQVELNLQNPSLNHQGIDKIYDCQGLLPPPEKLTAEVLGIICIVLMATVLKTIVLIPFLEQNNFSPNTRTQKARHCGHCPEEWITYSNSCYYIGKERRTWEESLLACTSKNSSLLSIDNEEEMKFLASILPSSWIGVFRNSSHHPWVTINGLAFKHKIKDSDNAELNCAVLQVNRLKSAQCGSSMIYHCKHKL
# KIR2DS2 = biological target: T4, KIR2DS2 (human, UniProt P43631 22-304); test: co-immunoprecipitation from 125I-labelled Ba/F3 transfectants
# T4 construct: whole, on cells; Expressed in Ba/F3 or Jurkat transfectants; also called NKAT5
# T4 sequence (P43631 22-304): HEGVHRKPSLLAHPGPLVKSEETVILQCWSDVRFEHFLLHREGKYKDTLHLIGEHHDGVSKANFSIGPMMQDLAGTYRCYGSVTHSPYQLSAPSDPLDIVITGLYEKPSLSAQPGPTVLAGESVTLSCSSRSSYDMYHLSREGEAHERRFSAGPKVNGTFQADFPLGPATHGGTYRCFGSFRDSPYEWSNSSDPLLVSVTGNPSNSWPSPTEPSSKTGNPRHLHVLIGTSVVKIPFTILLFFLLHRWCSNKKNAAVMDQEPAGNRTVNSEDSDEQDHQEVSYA
# Excerpt: Unlike CD94/NKG2C, KIR2DS2 molecules are expressed on the cell surface in the absence of DAP12, although they are unable to induce cellular activation (Bléry, et al. (1997) *J. Biol. Chem.* 272:8989-8996; Lanier, et al. (1998) *Nature* 391:703-707). KIR2DS2+ Ba/F3 cells were infected with retroviruses encoding either wild-type FLAG-DAP12 or the D-A transmembrane FLAG-DAP12 mutant receptor. Both KIR2DS2 and the mutant DAP12 protein were expressed on the cell surface. […] Like NKG2A and NKG2C, the KIR2DS2 protein has a counterpart, KIR2DL2, that lacks a charged amino acid in the transmembrane and contains an ITIM in its cytoplasmic domain. It has been previously reported that KIR2DL2 is unable to associate with DAP12 (Lanier, et al. (1998) *Nature* 391:703-707). Collectively, these findings indicate that the association of DAP12 with either KIR2DS2 or CD94/NKG2C complexes likely results from interactions involving the transmembrane domains of these proteins.
binder,measurement,setting,value
"epitope-tagged mouse DAP12 (DAP12-FLAG) (receptor, not shown: small tags and cut ends, Limits of the construct are not described; also called mouse DAP12-FLAG; FLAG-tagged form of mouse DAP12) AQSDTFPRCDCSSVSPGVLAGIVLGDLVLTLLIALAVYSLGRLVSRGQGTAEGTRKQHIAETESPYQELQGQRPEVYSDLNTQRQYYR",binding result,Ly49D,binds
same,binding result,[1],binds
"DAP12-FLAG (human DAP12 with a FLAG epitope tag at the N terminus) (receptor, not shown: small tags and cut ends, Made as CD8 leader, FLAG, then DAP12 without its own leader; Runs as a disulfide-bonded homodimer on the cell surface; also called FLAG-DAP12) QAQSDCSCSTVSPGVLAGIVMGDLVLTVLIALAVYFLGRLVPRGRGAAEAATRKQRITETESPYQELQGQRSDVYSDLNTQRPYYK",binding result,[2],binds
"D-A transmembrane FLAG-DAP12 mutant receptor (receptor, not shown: small tags and cut ends, also called mutant DAP12 protein) QAQSDCSCSTVSPGVLAGIVMGALVLTVLIALAVYFLGRLVPRGRGAAEAATRKQRITETESPYQELQGQRSDVYSDLNTQRPYYK",binding result,KIR2DS2,no binding

# Reference: patent publication US7319140 (SCHERING, dated 2008)
